{"source": "patent US20160326219A1", "about": "“OPTICALLY ACTIVATED RECEPTORS” (IST AUSTRIA (INSTITUTE OF SCIENCE AND TECHNOLOGY AUSTRIA), priority 2013, published 2016)", "system": "hBE cells", "assay": "In vitro angiogenesis (sprouting) assay (hBE cells)", "type": "cell-based", "conditions": "hBE cell spheroids, FIGS. 7b and c", "experimental": "For spheroid generation, hBE cells were suspended as hanging drops (450 cells in a 25 μl drop) in M199 medium (Sigma) supplemented with 10% FBS, L-glutamine, 2.2 g/I NaHCO3 and 20% methylcellulose (Sigma) over night in a standard tissue culture incubator. The following day, spheroids were washed in PBS containing 10% FBS, centrifuged, resuspended in Methocel/20% FBS, mixed (1:1) with neutralized rat-tail collagen and seeded into non-adhesive 24-well plates (Greiner Bio-one, Kremsmünster, Austria). After solidification of the collagen, VEGFA (30 ng/ml) or PD166866 (10 μM) were added. Plates were stimulated with light for 5 min every 20 min for 10 h or kept in the dark. After stimulation, 1 ml of 8% paraformaldehyde was added to each well and spheroids were photographed on the Nikon microscope. Cumulative sprout lengths per sphere from at least 8 spheroids per group were measured (ImageJ)."}
{"molecule": "Opto-mFGFR1: chimeric receptor of mFGFR1 intracellular domain and VfAU1-LOV, SEQ ID NO: 58 (protein, mFGFR1-VfAU1-LOV) MGSSKSKPKDPSQRLDMKSGTKKSDFHSQMAVHKLAKSIPLRRQVTVSADSSASMNSGVLLVRPSRLSSSGTPMLAGVSEYELPEDPRWELPRDRLVLGKPLGEGCFGQVVLAEAIGLDKDKPNRVTKVAVKMLKSDATEKDLSDLISEMEMMKMIGKHKNIINLLGACTQDGPLYVIVEYASKGNLREYLQARRPPGLEYCYNPSHNPEEQLSSKDLVSCAYQVARGMEYLASKKCIHRDLAARNVLVTEDNVMKIADFGLARDIHHIDYYKKTTNGRLPVKWMAPEALFDRIYTHQSDVWSFGVLLWEIFTLGGSPYPGVPVEELFKLLKEGHRMDKPSNCTNELYMMMRDCWHAVPSQRPTFKQLVEDLDRIVALTSNQEYLDLSIPLDQYSPSFPDTRSSTCSSGEDSVFSHEPLPEEPCLPRHPTQLANSGLKRRVETGPDYSLVKALQMAQQNFVITDASLPDNPIVYASRGFLTLTGYSLDQILGRNCRFLQGPETDPRAVDKIRNAITKGVDTSVCLLNYRQDGTTFWNLFFVAGLRDSKGNIVNYVGVQSKVSEDYAKLLVNEQNIEYKGVRTSNMLRRKTGGSGVDYPYDVPDYALD", "values": [{"measurement": "Morphological alterations (sprouting) upon blue light illumination", "result": "induced morphological alterations"}]}
